Measurements published in patent US9096835B2, “DNA polymerase” (Medical Research Council, priority 2003, dated 2015).

What was measured:
PCR with Biotin-16-dUTP = assay type: biochemical; conditions: 50 cycle PCR, complete replacement
Protocol: A PCR assay was used to screen and rank clones. Briefly, clones were normalized for activity in PCR with matched primers 3, 4 and activity with mismatched primers 1 and 2 (1 μM each) determined at minimal cycle number (15-25 cycles). Extension capability for different mismatches was determined by the same assay using mismatch primers 2 (C•C mismatch), 5 (A•A mismatch), 6 (G•G mismatch), 7 (G•A mismatch) with matched primer 3 or primer 1 (A•G mismatch) with matched primer 4. Incorporation of unnatural substrates in 50 cycle PCR was carried out using standard conditions and 50 μM […] dNTPs (Promega) or 50 μM FITC-12-dATP (Perkin-Elmer), Rhodamine-5-dUTP (Perkin-Elmer) or Biotin-16-dUTP (Roche) with equivalent amounts of the other 3 dNTPs (all 50 μM). Long PCR was carried out using a two-step cycling protocol as described (22) 94° C. for 2 minutes, followed by 20 cycles of (94° C. 15 sec, 68° C. 30 min) using 5 ng of phage λ DNA (New England Biolabs) template and either primers 9, 10, 11 with primer 12 or primer 13 with primers 10, 14.

[1] = system: template containing a single 5-nitroindole; experiment: 5NI replication assay; assay type: biochemical; conditions: primer extension, 60° C.
Protocol: Primer 26 was ^32P-labeled and annealed to template primer 27 (containing a single 5-nitroindole) in 1× Taq buffer, 0.1 or 0.5 U of the polymerase was added and reactions incubated at 60° C. for 15 mins, after which 40 μM of each dNTP were added and incubation at 60° C. continued for various times.

For “wtTaq: Thermus aquaticus (Taq) wild type DNA polymerase [reference compound]”, which “PCR amplification with Biotin-16-dUTP” value (PCR with Biotin-16-dUTP) is on record?
The value was “unable to generate any amplification products”.

B1: M1: Taq mutant G84A, D144G, K314R, E520G, F598L, A608V, E742G; SEQ ID NO: 1 (protein)
chain: MRGMLPLFEPKGRVLLVDGHHLAYRTFHALKGLTTSRGEPVQAVYGFAKSLLKALKEDGDAVIVVFDAKAPSFRHEAYGGYKAARAPTPEDFPRQLALIKELVDLLGLARLEVPGYEADDVLASLAKKAEKEGYEVRILTADKGLYQLLSDRIHVLHPEGYLITPAWLWEKYGLRPDQWADYRALTGDESDNLPGVKGIGEKTARKLLEEWGSLEALLKNLDRLKPAIREKILAHMDDLKLSWDLAKVRTDLPLEVDFAKRREPDRERLRAFLERLEFGSLLHEFGLLESPKALEEAPWPPPEGAFVGFVLSRREPMWADLLALAAAAGGRVHRAPEPYKALRDLKEARGLLAKDLSVLALREGLGLPPGDDPMLLAYLLDPSNTTPEGVARRYGGEWTEEAGERAALSERLFANLWGRLEGEERLLWLYREVERPLSAVLAHMEATGVRLDVAYLRALSLEVAEEIARLEAEVFRLAGHPFNLNSRDQLERVLFDELGLPAIGKTEKTGKRSTSAAVLGALREAHPIVEKILQYRELTKLKSTYIDPLPDLIHPRTGRLHTRFNQTATATGRLSSSDPNLQNIPVRTPLGQRIRRAFIAEEGWLLVVLDYSQIELRVLAHLSGDENLIRVFQEGRDIHTETASWMFGVPREAVDPLMRRAAKTINFGVLYGMSAHRLSQELAIPYEEAQAFIERYFQSFPKVRAWIEKTLEEGRRRGYVETLFGRRRYVPDLEARVKSVRGAAERMAFNMPVQGTAADLMKLAMVKLFPRLEEMGARMLLQVHDELVLEAPKERAEAVARLAKEVMEGVYPLAVPLEVEVGIGEDWLSAKE
modifications: Mutant Thermus aquaticus DNA polymerase
With B1 as the molecule, how does the “size of amplification products fully labelled with Biotin-16-dUTP” value (PCR with Biotin-16-dUTP) read?
The value was 2.7 kb.

And the “bypass of template strand 5NI” value [1]?
The value was “efficiently bypass template strand 5NI”.

B2: M4: Taq mutant D58G, R74P, A109T, L245R, R343G, G370D, E520G, N583S, E694K, A743P; SEQ ID NO 2 (protein)
chain: MRGMLPLYEPKGRVLLVDGHHLAYRTFHALKGLTTSRGEPVQAVYGFAKSLLKALKEGGDAVIVVFDAKAPSFPHEAYGGYKAGRAPTPEDFPRQLALIKELVDLLGLTRLEVPGYEADDVLASLAKKAEKEGYEVRILTADKDLYQLLSDRIHVLHPEGYLITPAWLWEKYGLRPDQWADYRALTGDESDNLPGVKGIGEKTARKLLEEWGSLEALLKNLDRLKPAIREKILAHMDDLKLSWDRAKVRTDLPLEVDFAKRREPDRERLRAFLERLEFGSLLHEFGLLESPKALEEAPWPPPEGAFVGFVLSRKEPMWADLLALAAARGGRVHRAPEPYKALGDLKEARGLLAKDLSVLALREGLGLPPDDDPMLLAYLLDPSNTTPEGVARRYGGEWTEEAGERAALSERLFANLWGRLEGEERLLWLYREVERPLSAVLAHMEATGVRLDVAYLRALSLEVAEEIARLEAEVFRLAGHPFNLNSRDQLERVLFDELGLPAIGKTEKTGKRSTSAAVLGALREAHPIVEKILQYRELTKLKSTYIDPLPDLIHPRTGRLHTRFNQTATATGRLSSSDPNLQSIPVRTPLGQRIRRAFIAEEGWLLVALDYSQIELRVLAHLSGDENLIRVFQEGRDIHTETASWMFGVPREAVDPLMRRAAKTINFGVLYGMSAHRLSQELAIPYEEAQAFIKRYFQSFPKVRAWIEKTLEEGRRRGYVETLFGRRRYVPDLEARVKSVREPAERMAFNMPVQGTAADLMKLAMVKLFPRLEEMGARMLLQVHDELVLEAPKERAEAVARLAKEVMEGVYPLAVPLEVEVGIGEDWLSAKE
modifications: Mutant Thermus aquaticus DNA polymerase
With B2 as the molecule, how does the “bypass of template strand 5NI” value [1] read?
Its value is “efficiently bypass template strand 5NI”.
